Results taken from patent US20190375846A1 (ULTRAHUMAN ONE, published 2019).
Residue numbers refer to the chain shown, from its start.

B1: chimeric anti-GITR IgG1 mVH/mVL (6C8 murine v-domains) (antibody, V domains shown)
VH: QVTLKESGPGILKPSQTLSLTCSFSGFSLSTSGMGVGWIRQPSGKGLEWLAHIWWDDDKYYNPSLKSQLTISKDTSRNQVFLKITSVDTADAATYYCARTRRYFPFAYWGQGTLVTVSS
VL: DIVMTQSQKFMSTSVGDRVSVTCKASQNVGTNVAWYQQKPGQSPKALIYSASYRYSGVPDRFTGSGSGTDFTLTINNVHSEDLAEYFCQQYNTDPLTFGAGTKLEIK
notes: Full-length human IgG1, kappa; also called GITR-mVH/mVL; chimeric IgG
B2: D-A6 IgG1 (antibody, V domains shown)
VH: EVQLVESGGGLVQPGGSLRLSCAASGFSLSTSGYGVGWVRQAPGKGLEWLAHIWWDDDKYYVDSVKGRFTISRDNAKNSLYLQMNSLRAEDTAVYYCARTRQYFPFAYWGQGTLVTVSS
VL: EIVLTQSPATLSLSPGERATLSCRASQSVGSNLAWYQQKPGQAPRLLIYSASYRYTGIPARFSGSGSGTDFTLTISSLEPEDFAVYYCQQYSTDPLTFGGGTKVEIK
notes: Human IgG1
B3: VH3/VL2 IgG1 (antibody, V domains shown)
VH: B2 VH with Y34M, Q102R
VL: B2 VL with S28N, S31T, L33V, T56S, S92N
notes: Human IgG1; template of the mutagenesis library; also called G-VH3/VL2; VH3 family
B4: G-G10 IgG1 (antibody, V domains shown)
VH: B2 VH with S32F
VL: B2 VL with S31T, S50Y, T93N
notes: Human IgG1
B5: I-C2 IgG1 (antibody, V domains shown)
VH: B2 VH with Q102L
VL: B2 VL with S28N, Y53N, T56S
notes: Human IgG1

Each binder was assayed against T1, hVCAM-1 (human, UniProt P19320) (assay: direct ELISA on coated protein, IgG at 10 µg/ml, OD 450 nm).
T1 construct: purified recombinant protein; Member of the panel m8; the axis also carries a separate label hVCAM-Fc (f6)
T1 sequence (looked up): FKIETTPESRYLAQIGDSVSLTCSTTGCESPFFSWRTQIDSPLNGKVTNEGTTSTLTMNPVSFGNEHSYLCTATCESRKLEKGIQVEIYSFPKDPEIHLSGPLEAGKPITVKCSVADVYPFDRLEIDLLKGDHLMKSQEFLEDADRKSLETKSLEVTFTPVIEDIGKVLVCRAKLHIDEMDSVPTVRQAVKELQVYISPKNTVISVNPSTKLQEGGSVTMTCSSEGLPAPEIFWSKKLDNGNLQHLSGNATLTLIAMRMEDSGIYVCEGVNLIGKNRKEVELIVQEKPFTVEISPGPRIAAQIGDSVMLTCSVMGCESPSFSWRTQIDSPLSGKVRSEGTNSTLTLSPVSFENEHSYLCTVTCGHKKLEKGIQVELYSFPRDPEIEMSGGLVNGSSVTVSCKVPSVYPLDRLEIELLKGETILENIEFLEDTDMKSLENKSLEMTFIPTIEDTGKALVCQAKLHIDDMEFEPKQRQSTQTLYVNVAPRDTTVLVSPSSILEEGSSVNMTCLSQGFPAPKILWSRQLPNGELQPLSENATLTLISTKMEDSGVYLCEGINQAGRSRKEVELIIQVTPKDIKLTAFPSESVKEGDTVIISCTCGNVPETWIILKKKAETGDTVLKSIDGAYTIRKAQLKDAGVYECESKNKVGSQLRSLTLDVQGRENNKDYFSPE
Description: (§1) Off-target homologue binding risk for mVH/mVL (FIG. 8A), VH3/VL2 (FIG. 8B) and lead engineered IgG clones G-G10 (FIG. 8C), I-C2 (FIG. 8D) and D-A6 (FIG. 8E) was examined by direct ELISA on GITR-Fc orthologs and a panel of 13 human TNFRSF and immunoglobulin superfamily proteins (as labelled on each X-axis). Binding to human, cyno and murine GITR-Fcs (h/c/mGITR-Fc) was performed at an IgG concentration of 1 μg/ml. Binding to all other proteins was performed at an IgG concentration of 10 μg/ml.
(§2) Anti-GITR antibodies were tested for polyreactivity by ELISA. Purified, recombinant, target and non-target antigens were coated in 96-well Nunc maxisorp plates at 100 ng per well in carbonate buffer, at 4° C. overnight. Plates were then washed 3× with PBS, blocked with 1% BSA in PBS, then washed 3× with PBS-Tween20. A dilution series of primary antibodies was then applied, plates were washed 3× with PBS-Tween20 followed by application of goat anti-human kappa chain-HRP 1:4,000 secondary antibody. Wells were then washed 3× with PBS-Tween20 and 2× with PBS, 100 μl TMB peroxidase substrate was added per well, the was reaction stopped by adding 100 μl 2M H₂SO₄ and absorbances were read at 450 nm. Anti-GITR antibodies were also tested for binding specificity by flow cytometry. HuT78 cells were activated by incubation with anti-CD3/anti-CD28 beads for 3 days. Naïve cells were incubated in media alone. At the end of the incubation the cells were harvested and the beads removed from the activated cells using a magnet. Cells were incubated with viability dye and then stained with anti-GITR antibodies at 4° C. […] Binding of VH1/VI1 and D-A6 IgG1 proteins were detected by subsequent incubation with a PE labelled goat anti-human IgG. Cells were fixed with 4% PFA before being stored in PBS at 4° C. overnight. Cells were analysed the next day using a BD Fortessa flow cytometer running Diva software. Analysis was performed using FlowJo software.
B1: no binding (tested: 10 µg/ml).
B2: no binding (tested: 10 µg/ml).
B3: no binding (tested: 10 µg/ml).
B4: no binding (tested: 10 µg/ml).
B5: no binding (tested: 10 µg/ml).

What follows are binders tested against T2, hDR6-Fc (human, UniProt O75509) in the same assay as above.
T2 construct: recombinant Fc fusion; Member of the panel m8
T2 sequence (fusion chain, looked up): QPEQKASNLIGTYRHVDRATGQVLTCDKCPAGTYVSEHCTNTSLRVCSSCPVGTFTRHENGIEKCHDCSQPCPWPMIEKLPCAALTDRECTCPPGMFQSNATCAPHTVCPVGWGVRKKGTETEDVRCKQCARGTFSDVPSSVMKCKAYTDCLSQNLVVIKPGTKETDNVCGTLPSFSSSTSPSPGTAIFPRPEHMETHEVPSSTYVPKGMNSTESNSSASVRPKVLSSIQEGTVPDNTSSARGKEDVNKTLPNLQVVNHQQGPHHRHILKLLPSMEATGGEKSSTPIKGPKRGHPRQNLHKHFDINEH
Description: as §1, §2
B1: no binding (tested: 10 µg/ml).
B2: no binding (tested: 10 µg/ml).
B3: no binding (tested: 10 µg/ml).
B4: no binding (tested: 10 µg/ml).
B5: no binding (tested: 10 µg/ml).

Each binder was assayed against T3, hDR3-Fc (human, UniProt Q93038) in the same assay as above.
T3 construct: recombinant Fc fusion; Member of the panel m8
T3 sequence (fusion chain, looked up): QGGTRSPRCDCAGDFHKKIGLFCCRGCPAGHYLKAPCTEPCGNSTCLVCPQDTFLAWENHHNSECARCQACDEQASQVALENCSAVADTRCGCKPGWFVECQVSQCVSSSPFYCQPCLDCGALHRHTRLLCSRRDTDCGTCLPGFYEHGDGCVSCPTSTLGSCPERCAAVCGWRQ
Description: as §1, §2
B1: no binding (tested: 10 µg/ml).
B2: no binding (tested: 10 µg/ml).
B3: no binding (tested: 10 µg/ml).
B4: no binding (tested: 10 µg/ml).
B5: no binding (tested: 10 µg/ml).

The binders below were run against T4, hBAFFR-Fc (human, UniProt Q96RJ3) in the same assay as above.
T4 construct: recombinant Fc fusion; Member of the panel m8
T4 sequence (Q96RJ3 7-71 limits assumed): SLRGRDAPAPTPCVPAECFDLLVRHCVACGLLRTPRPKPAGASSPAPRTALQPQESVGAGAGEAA
Description: as §1, §2
B1: no binding (tested: 10 µg/ml).
B2: no binding (tested: 10 µg/ml).
B3: no binding (tested: 10 µg/ml).
B4: no binding (tested: 10 µg/ml).
B5: no binding (tested: 10 µg/ml).

These binders were tested against cynomolgus monkey GITR at the cell surface (cynomolgus monkey) (assay: cell-based or functional assay).
For B2, the “EC50 of FcγRIIIa activation, Promega ADCC reporter assay, CHO-K1 target cells expressing cyno GITR” value was 57.9 nM and the “potency against VH1/VL1 IgG1, ADCC reporter assay on cyno GITR CHO-K1 cells” value was 2 fold.

What follows are binders tested against T5, human GITR at the cell surface (human, UniProt Q9Y5U5 26-241) (assay: cell-based or functional assay).
T5 sequence (looked up): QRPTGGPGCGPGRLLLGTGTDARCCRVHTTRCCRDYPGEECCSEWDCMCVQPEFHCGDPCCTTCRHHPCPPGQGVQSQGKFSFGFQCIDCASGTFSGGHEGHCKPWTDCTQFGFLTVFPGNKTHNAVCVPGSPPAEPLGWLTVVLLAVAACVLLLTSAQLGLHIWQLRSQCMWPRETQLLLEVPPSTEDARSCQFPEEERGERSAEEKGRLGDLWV
B2 was tested, and the “EC50 of FcγRIIIa activation, Promega ADCC reporter assay, CHO-K1 target cells expressing human GITR” value was 15.4 nM and the “potency against VH1/VL1 IgG1, ADCC reporter assay on human GITR CHO-K1 cells” value was 2 fold.

The binders below were run against T6, human GITR-Fc (human, UniProt Q9Y5U5 26-161) (assay: direct ELISA, IgG at 1 µg/ml).
T6 construct: Recombinant GITR-Fc; also called hGITR-Fc; hGITR; not shown: Fc part
T6 sequence (looked up): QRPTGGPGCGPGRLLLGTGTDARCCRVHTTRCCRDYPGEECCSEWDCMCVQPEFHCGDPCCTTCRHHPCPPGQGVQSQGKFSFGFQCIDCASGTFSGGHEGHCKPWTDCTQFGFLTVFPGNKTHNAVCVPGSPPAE
Description: as §1, §2
Work on B1 yielded an OD450 nm of over 3 OD450 nm.
Binder B2 has an OD450 nm of over 3 OD450 nm.
B3 was tested, and the OD450 nm was over 3 OD450 nm.
In the case of B4, the OD450 nm is reported as over 3 OD450 nm.
With B5 the OD450 nm was over 3 OD450 nm.

What follows are binders tested against T7, cynomolgus monkey GITR-Fc (cynomolgus monkey (Macaca fascicularis)) (assay: direct ELISA, IgG at 1 µg/ml).
T7 construct: also called cyno GITR-Fc; cGITR-Fc
Description: as §1, §2
In the case of B1, the OD450 nm is reported as over 1 OD450 nm.
Binder B2 has an OD450 nm of over 1 OD450 nm.
For B3, the OD450 nm was over 1 OD450 nm.
In the case of B4, the OD450 nm is reported as over 1 OD450 nm.
B5 showed an OD450 nm of over 1 OD450 nm.
